The results in this text go back to article PMC2917178 (Biochemistry, 2010).

In this assay the target is H3-H4 (Xenopus laevis, UniProt P84233 1-136; P62799 1-103). Kind of assay: SEC.

B1: co-purified Rtt109-Vps75 complex (complex)
chain 1: MSLNDFLSSVLPVSEQFEYLSLQSIPLETHAVVTPNKDDKRVPKSTIKTQHFFSLFHQGKVFFSLEVYVYVTLWDEADAERLIFVSKADTNGYCNTRVSVRDITKIILEFILSIDPNYYLQKVKPAIRSYKKISPELISAASTPARTLRILARRLKQSGSTVLKEIESPRFQQDLYLSFTCPREILTKICLFTRPASQYLFPDSSKNSKKHILNGEELMKWWGFILDRLLIECFQNDTQAKLRIPGEDPARVRSYLRGMKYPLWQVGDIFTSKENSLAVYNIPLFPDDPKARFIHQLAEEDRLLKVSLSSFWIELQERQEFKLSVTSSVMGISGYSLATPSLFPSSADVIVPKSRKQFRAIKKYITGEEYDTEEGAIEAFTNIRDFLLLRMATNLQSLTGKREHRERNQPVPASNINTLAITMLKPRKKAKALPKT
chain 2: MMSDQENENEHAKAFLGLAKCEEEVDAIEREVELYRLNKMKPVYEKRDAYIDEIAEFWKIVLSQHVSFANYIRASDFKYIDTIDKIKVEWLALESEMYDTRDFSITFHFHGIEGDFKEQQVTKVFQIKKGKDDQEDGILTSEPVPIEWPQSYDSINPDLIKDKRSPEGKKKYRQGMKTIFGWFRWTGLKPGKEFPHGDSLASLFSEEIYPFCVKYYAEAQRDLEDEEGESGLSADGDSEDDDGSLGEVDLPLSDEEPSSKKRKV
modifications: acetyl-lysine at K290 (wildtype Rtt109 used is fully acetylated at K290, unpublished data)
For the molecule B1, the binding result was “binds”.
